Test results published in paper doi:10.1101/2022.01.20.477176v3.

How the values were obtained:
Experiment in all cases: purified protein
purified protein [1] = substrate: C=C(C)C(=O)O; details: 150 μM NADH (saturating), pH 6.5
purified protein [2] = substrate: C=CC(=O)O; details: 150 μM NADH (saturating), pH 6.5
purified protein [3] = substrate: NC(=O)C1=CN([C@@H]2O[C@H](COP(=O)(O)OP(=O)(O)OC[C@H]3O[C@@H](n4cnc5c(N)ncnc54)[C@H](O)[C@@H]3O)[C@@H](O)[C@H]2O)C=CC1; details: 1 mM acrylate, pH 6.5

B1: ARD (NADH:acrylate oxidoreductase) (Vibrio harveyi) (protein)
chain: MAQLVDEIVFQSGVKLHNRIVMAPMTIQSAFFDGGVTQEMINYYAARSGGAGAIIVESAFVENYGRAFPGALGIDTDSKIAGLTKLADAIKAKGSKAILQIYHAGRMANPEFNGGHQPISASPVAALRDNAETPLEMTKEQIEEMIERFGDAVNRAILAGFDGVEIHGANTYLIQQFFSPHSNRRNDKWGGNIERRTSFPLAVLAKTKQVAEQHNKSDFIIGYRFSPEEIEQPGIRFDDTMFLLDKLATHGLDYFHFSMGSWLRNSIVTPEDQEPLIDKYRKLQSESVAKVPVIGVGGIAQRKDAENALEQGYDMVSVGKGYLVEPTWANKALNDETCAEFADIAQQEALQIPTPLWEIMDYMIVDSAAEALKHQRIKELQNVPIKFNSGEYTAYGRGHNGDLPVTVTFSEDKILDIVVDSSKESDGIANPAFERIPQQILDGQTLNIDVISGATVSSQAVLDGVSNAVDLAGGNSEALRCKAKEAVAWSSKTIEETVDIVVVGGGGAGLSATLTALDKGKSVVLLEKFPAIGGNTVRTGGWVNAAEPKWQGDFPALPGEKETLMLLAKTAESEFSGEYLEDFKVLKAQLDGYFTDLENGKQYLFDSVELHRIQTYLGGKRTDLNGESIYGQYDLVETLTSRSMESIDWLSEKGIDFDRSVVEIPVGALWRRAHKPKRPKGVEFIDKLSKRIQEQNGRIITDTRATDLMVDNGKVVGIKAVQADGTELILHVNHGVVLASGGFGANTQMIKKYNTYWKEIADDIKTTNSPALVGDGIEIGEKAGAELVGMGFVQLMPVGDPKSGALLTGLIVPPENFVFVNKQGKRFVDECGSRDVLSEAFFDNGGLIYMIADENIRQTAANTSDETIEREIKEGIIIQADTLEELAEKIGVPTQELTNTIAQYNACVDAGQDPEFHKSAFGLKVEKAPFYATPRQPSVHHTMGGLKIDTKARVIGKDGEVIQGLYAAGEVTGGIHAGNRLGGNALIDIFTYGRIAGESASDLV
- Km (purified protein [1]): 690 ± 140 µM
- kcat (purified protein [1]): 2.5 ± 0.2 s⁻¹
- Km (purified protein [2]): 16 ± 1 µM
- kcat (purified protein [2]): 19 ± 1 s⁻¹
- Km (purified protein [3]): 14 ± 1 µM
